The record followed here is patent US20140011747A1 (WISCONSIN ALUMNI RESEARCH FOUNDATION, published 2014).

Ends that are not written are not given here. Some results are limits rather than exact numbers.

Assay [1] deals with T1, epidermal growth factor receptor (EGFR), endogenous in human cell lines (human, UniProt P00533 25-1210). In words: cell-based or functional assay.
In assay [2] the target is T1, epidermal growth factor receptor …. In words: co-immunoprecipitation from lysates of MCF10A and BT474 cells, western blot.
Method: (§1) Cells were washed once with washing buffer (50 mM Hepes, 50 mM NaCl and 10 mM EDTA, pH 7.4) and lysed for 20 min on ice in 1% Triton X-100 containing a 1:1000 dilution of protease inhibitor mixture set III (Calbiochem) in washing buffer. Cell debris was removed by centrifugation at 20,000 g for 15 min at 4° C. […] Visualization of immune-reactive bands was performed using ECF reagent (GE Healthcare) and scanned on a Typhoon Trio Variable Mode Imager (GE-Healthcare) in blue fluorescence.
Assay [3] has the same target. As to the kind of experiment: co-immunoprecipitation of mouse syndecan chimeras from HaCat cells, western blot. In general terms: In western blotting, separated proteins are transferred to a membrane and probed.
Method: (FIG. 6A) Mouse syndecan chimeras in which their ectodomains are switched are expressed in HaCat cells, then immunoprecipitated with antibodies specific for the mouse syndecan ectodomains. […] HER2 or EGFR are immunoprecipitated from the lysates directly for comparison.
as §1
The target of assay [4] is T2, β4^R1733A mutant of the β4 cytoplasmic domain (binding construct) (human, UniProt P16144-2 1677-1752).
T2 construct: not shown: 6×His tag and leader of the pTRC-His A vector
T2 sequence (looked up): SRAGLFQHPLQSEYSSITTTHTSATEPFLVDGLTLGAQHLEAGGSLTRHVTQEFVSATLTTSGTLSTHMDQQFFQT
As to the kind of experiment: binding of β4 cytoplasmic domain mutants to syndecan.

In the case of NHIPERAGSGSQAAAAAAAAAANEVIPKRISPVEESEDVSNKVSM [SSTNEGFR synthetic peptide with amino acids 99-108 mutated to alanine], the “activity against EGF-stimulated cell migration, relative to SSTNEGFR” value in assay [1] was determined as 10 fold reduction.

B1: syndecan-1 (Sdc1), human, endogenous in human cell lines (receptor, UniProt P18827 23-310, looked up)
chain: QIVATNLPPEDQDGSGDDSDNFSGSGAGALQDITLSQQTPSTWKDTQLLTAIPTSPEPTGLEATAASTSTLPAGEGPKEGEAVVLPEVEPGLTAREQEATPRPRETTQLPTTHLASTTTATTAQEPATSHPHRDMQPGHHETSTPAGPSQADLHTPHTEDGGPSATERAAEDGASSQLPAAEGSGEQDFTFETSGENTAVVAVEPDRRNQSPVDQGATGASQGLLDRKEVLGGVIAGGLVGLIFAVCLVGFMLYRMKKKDEGSYSLEEPKQANGGAYQKPTKQEEFYA
notes: whole, on cells; Used as the comparison for Sdc4 in co-immunoprecipitation
As for B1, in assay [2], the binding result is given as “no binding”.

B2: GST-S4ED, recombinant Sdc4 ectodomain fused to GST (other, UniProt P31431 19-145, looked up, not shown: a dimerising Fc or GST)
chain: ESIRETEVIDPQDLLEGRYFSGALPDDEDVVGPGQESDDFELSGSGDLDDLEDSMIGPEVVHPLVPLDNHIPERAGSGSQVPTEPKKLEENEVIPKRISPVEESEDVSNKVSMSSTVQGSNIFERTE
Turning to B2, the “IC50, EGF-stimulated chemotaxis of MCF10A cells or HaCat keratinocytes” value in assay [1] was in the range of 100 to 300 nM.

B3: mouse syndecan chimera: mSdc4 with its ectodomain swapped for that of Sdc1 (receptor, UniProt P18828 23-255, looked up)
chain: QIVAVNVPPEDQDGSGDDSDNFSGSGTGALPDTLSRQTPSTWKDVWLLTATPTAPEPTSSNTETAFTSVLPAGEKPEEGEPVLHVEAEPGFTARDKEKEVTTRPRETVQLPITQRASTVRVTTAQAAVTSHPHGGMQPGLHETSAPTAPGQPDHQPPRVEGGGTSVIKEVVEDGTANQLPAGEGSGEQDFTFETSGENTAVAAVEPGLRNQPPVDEGATGASQSLLDRKEVLGVLAALIVGGVVGILFAVFLILLLVYRMKKKDEGSYDLGKKPIYKKAPTNEFYA
notes: extracellular domain;domain: transmembrane and cytoplasmic domains; Expressed in HaCat cells; also called Sdc4 displaying the Sdc1 ectodomain
For the molecule B3, in assay [3], the binding result is “no binding”. Consider NHIPERAGSGSQVPTEPKKLEENEVIPKRISPVEESEDVSNKVSM [SSTNEGFR, synthetic peptide of amino acids 87-131 of the human Sdc4 ectodomain], for which the “IC50, EGF-stimulated migration of MCF10A cells, scratch wound closure” value in assay [1] lay within 100 to 300 nM. Consider NHIPERAGSGSQVPTEPKKLEENEVIPKRISPVEESEDV [SSTNEGFR synthetic peptide truncated of amino acids 126-131], for which the “activity against EGF-stimulated cell migration, relative to SSTNEGFR” value in assay [1] was at least 100 fold reduction.

B4: GST-S1CD, Sdc1 cytoplasmic domain fused to GST (other)
chain: {GST}-RMKKKDEGSYSLEEPKQANGGAYQKPTKQEEFYA
notes: The result sentences say only Sdc1; not shown: glutathione S-transferase (GST) fusion partner
As to B4, in assay [4], the binding result is “no binding”.
